Results on three molecules are retold here after patent US10513713B2, “Modified host cells having tolerance to α-olefins” (priority 2014, dated 2019).

Common to all, as to assay type: cell-based
Series [1] has as its system E. coli K12. The series can be described thus: microbe, parasite or virus in culture. The conditions noted are these: Escherichia coli, K12, 2 h, read-out: toxic dose (concentration of compound that decreased growth by half).
Procedure: A: The olefin compounds were added to different concentrations as indicated to an E. coli K12 culture at an OD600=0.2. OD was monitored after 2 hour at 37° C. The bars represent standard deviation between duplicates B: A survival test in presence of 1-octene was performed. Six different dilutions of a culture (10 cells to 10^7 cells, left to right) of E. coli K12 were spotted in triplicate on an agar plate. […] Plates were incubated at room temperature for 2 days and then opened to allow evaporation of the olefin.
In this example, toxicity of olefin compounds was evaluated. A toxic dose was defined as the concentration of compound that decreased growth by half.
In series [2] the test system is E. coli K12. Nature of the series: Survival test on agar plate with 1-octene overlay. The conditions noted are these: 2 days at room temperature, FIG. 1B. The protocol:
FIG. 1. Impact of styrene, 1-hexene and 1-octene on cell growth. A: The olefin compounds were added to different concentrations as indicated to an E. coli K12 culture at an OD600=0.2. OD was monitored after 2 hour at 37° C. The bars represent standard deviation between duplicates B: A survival test in presence of 1-octene was performed. Six different dilutions of a culture (10 cells to 10^7 cells, left to right) of E. coli K12 were spotted in triplicate on an agar plate. An overlay of 1-octene was added over the cells (controls had no overlay). Plates were incubated at room temperature for 2 days and then opened to allow evaporation of the olefin.
For agar plate based assays, cells were first streaked overnight and few colonies were used to inoculate a preculture of 6 mL of LB-Cm with glucose (2 g/L) and arabinose (5 mM). At OD60=1 at 37° C., the cultures were used to prepare a dilution series. Dilution 0 (D0) corresponds to the OD600, =1, and contains ˜10^9 cells/mL. Dilution 1 (D1) is a 10-fold dilution of D0, dilution 2 (D2) a 10-fold dilution of D1 up to dilution 5 (D5), which contains ˜10^4 cells/mL. 10 μL of each dilution was spotted in triplicate on LB-agar plates (single well plates, Thermo Scientific, Waltham, Mass.) containing 30 mL of LB-agar, Cm (30 mg/L), glucose (2 g/L) and arabinose (5 mM). […]

In series [3] the test system is E. coli K12 ΔacrAB. The series can be described thus: Survival assay on agar plate in olefin saturated atmosphere, strains producing AcrAB or AcrB variants. The protocol: (§1) FIG. 2: impact of AcrAB production on growth, in presence of styrene 1-hexene, 1-octene and 1-nonene on cell growth. A: Different concentrations of styrene were added to an OD600=0.2 culture of E. coli K12 ΔacrAB containing the pABc (white) or the control plasmid p0c (black). OD density was monitored after 2 hours of growth at 37° C. The bars represent standard deviation between duplicates. B: A survival test in presence of 1-hexene, 1-octene, or 1-nonene saturated atmosphere was performed. Six different dilutions of cultures (10 cells to 10^7 cells, left to right on the figure) were spotted in triplicate on an agar plates. Plates were then exposed to the aforementioned chemicals.
FIG. 4: Impact of beneficial mutations on AcrB on tolerance to 1-hexene, A: Survival test of E. coli strain producing either the AcrB wild type or variants in a 1-hexene saturated atmosphere was performed. Two dilutions of cultures (Dilution 1: 10^5 cells and Dilution 2: 10^4 cells) were spotted in triplicate on an agar plate. B: Localization of the 6 beneficial mutations represented on the structure of a single monomer of AcrB or C: on the structure of the AcrB trimer.
FIG. 6: Impact of beneficial mutations on AcrB on tolerance to 1-hexene. A: Survival test of E. coli strain producing either the AcrB Wild type or variants with 1, 2 or several beneficial mutations, in an 1-hexene saturated atmosphere was performed. Two dilutions of cultures (Dilution 2: 10^4 cells and Dilution 3: 10^3 cells) were spotted in triplicate on an agar plate. B: Soluble fraction of total proteins from a culture of strains producing either the wild type, either the variant F617L, either the variant 6 (A279T, Q584R, F617L) were analyzed by western blot using anti-His antibody.
For agar plate based assays, cells were first streaked overnight and few colonies were used to inoculate a preculture of 6 mL of LB-Cm with glucose (2 g/L) and arabinose (5 mM). At OD60=1 at 37° C., the cultures were used to prepare a dilution series. Dilution 0 (D0) corresponds to the OD600, =1, and contains ˜10^9 cells/mL. Dilution 1 (D1) is a 10-fold dilution of D0, dilution 2 (D2) a 10-fold dilution of D1 up to dilution 5 (D5), which contains ˜10^4 cells/mL. 10 μL of each dilution was spotted in triplicate on LB-agar plates (single well plates, Thermo Scientific, Waltham, Mass.) containing 30 mL of LB-agar, Cm (30 mg/L), glucose (2 g/L) and arabinose (5 mM). Small containers (microfuge tube lids) were placed on the open lid of the agar plate and filled with 400 to 600 μL of 1-hexene or 1-octene or with 75 μL of 1-nonene. The agar plates were then inverted over the lid, cells facing the olefin compound, sealed with parafilm, placed in the plastic bag (the original packaging for the petri dishes) and incubated for 2 days at room temperature. For 1-octene, a second condition, via overlaying 2 mL of compound on the top of the agar submerging the cells, was used. TolC overexpression impact was examined using the same method, but in this case, the LB media and the LB-agar were also supplemented with ampicillin (100 mg/L) and IPTG (100 μM). […]

The subject of series [4] is E. coli K12 ΔacrAB. The series can be described thus: Growth in liquid culture with 1-hexene, styrene or bile salts, strains producing AcrAB or AcrB variants. As to the method:
as §1
FIG. 5: Impact of beneficial AcrB mutations on growth, in presence of 1-hexene and styrene. Different concentrations of 1-hexene (A), styrene (B), or bile salts (C) were added to an OD600=0.2 culture of E. Coli K12 ΔacrAB containing either the AcrB wild type (pABc) or the AcrB variants. OD densities were monitored after 2 hours of culture at 37° C. The bars represent standard deviation between duplicates.
Cells were first inoculated in 6 mL LB-Cm with glucose (2 g/L) and arabinose (5 mM). […] After 2 hours at 37° C., OD600 was measured. […]

Another series concerns E. coli K12 wild type. Nature of the series: Survival test in 1-hexene saturated atmosphere on over-production of AcrA, AcrB and TolC. The conditions noted are these: FIG. 3.

Positions count from the first letter of the chain named. Names and notes keep the numbering of the source.

Procedure for E. coli K12 wild type: Six different dilutions of cultures (10 cells to 10^7 cells, left to right on the picture) were spotted in triplicate on an agar plate.
For agar plate based assays, cells were first streaked overnight and few colonies were used to inoculate a preculture of 6 mL of LB-Cm with glucose (2 g/L) and arabinose (5 mM). At OD60=1 at 37° C., the cultures were used to prepare a dilution series. Dilution 0 (D0) corresponds to the OD600, =1, and contains ˜10^9 cells/mL. Dilution 1 (D1) is a 10-fold dilution of D0, dilution 2 (D2) a 10-fold dilution of D1 up to dilution 5 (D5), which contains ˜10^4 cells/mL. 10 μL of each dilution was spotted in triplicate on LB-agar plates (single well plates, Thermo Scientific, Waltham, Mass.) containing 30 mL of LB-agar, Cm (30 mg/L), glucose (2 g/L) and arabinose (5 mM). […] The agar plates were then inverted over the lid, cells facing the olefin compound, sealed with parafilm, placed in the plastic bag (the original packaging for the petri dishes) and incubated for 2 days at room temperature. For 1-octene, a second condition, via overlaying 2 mL of compound on the top of the agar submerging the cells, was used. TolC overexpression impact was examined using the same method, but in this case, the LB media and the LB-agar were also supplemented with ampicillin (100 mg/L) and IPTG (100 μM).

Take `C=CCCCCCC` [1-octene]: in the series with E. coli K12 [1], the IC50 is more than 1000 mg/L. The “toxicity relative to the other olefins tested” value with E. coli K12 [2] is listed as “less toxic”.

B1: AcrA and AcrB: plasmid-borne wild type acrA and acrB in an operon under an arabinose inducible promoter (pABc) (protein, UniProt P0AE06 25-397; P31224 1-1049, looked up)
Multidrug efflux pump subunit … 1: CDDKQAQQGGQQMPAVGVVTVKTEPLQITTELPGRTSAYRIAEVRPQVSGIILKRNFKEGSDIEAGVSLYQIDPATYQATYDSAKGDLAKAQAAANIAQLTVNRYQKLLGTQYISKQEYDQALADAQQANAAVTAAKAAVETARINLAYTKVTSPISGRIGKSNVTEGALVQNGQATALATVQQLDPIYVDVTQSSNDFLRLKQELANGTLKQENGKAKVSLITSDGIKFPQDGTLEFSDVTVDQTTGSITLRAIFPNPDHTLLPGMFVRARLEEGLNPNAILVPQQGVTRTPRGDATVLVVGADDKVETRPIVASQAIGDKWLVTEGLKAGDRVVISGLQKVRPGVQVKAQEVTADNNQQAASGAQPEQSKS
Multidrug efflux pump subunit … 2: MPNFFIDRPIFAWVIAIIIMLAGGLAILKLPVAQYPTIAPPAVTISASYPGADAKTVQDTVTQVIEQNMNGIDNLMYMSSNSDSTGTVQITLTFESGTDADIAQVQVQNKLQLAMPLLPQEVQQQGVSVEKSSSSFLMVVGVINTDGTMTQEDISDYVAANMKDAISRTSGVGDVQLFGSQYAMRIWMNPNELNKFQLTPVDVITAIKAQNAQVAAGQLGGTPPVKGQQLNASIIAQTRLTSTEEFGKILLKVNQDGSRVLLRDVAKIELGGENYDIIAEFNGQPASGLGIKLATGANALDTAAAIRAELAKMEPFFPSGLKIVYPYDTTPFVKISIHEVVKTLVEAIILVFLVMYLFLQNFRATLIPTIAVPVVLLGTFAVLAAFGFSINTLTMFGMVLAIGLLVDDAIVVVENVERVMAEEGLPPKEATRKSMGQIQGALVGIAMVLSAVFVPMAFFGGSTGAIYRQFSITIVSAMALSVLVALILTPALCATMLKPIAKGDHGEGKKGFFGWFNRMFEKSTHHYTDSVGGILRSTGRYLVLYLIIVVGMAYLFVRLPSSFLPDEDQGVFMTMVQLPAGATQERTQKVLNEVTHYYLTKEKNNVESVFAVNGFGFAGRGQNTGIAFVSLKDWADRPGEENKVEAITMRATRAFSQIKDAMVFAFNLPAIVELGTATGFDFELIDQAGLGHEKLTQARNQLLAEAAKHPDMLTSVRPNGLEDTPQFKIDIDQEKAQALGVSINDINTTLGAAWGGSYVNDFIDRGRVKKVYVMSEAKYRMLPDDIGDWYVRAADGQMVPFSAFSSSRWEYGSPRLERYNGLPSMEILGQAAPGKSTGEAMELMEQLASKLPTGVGYDWTGMSYQERLSGNQAPSLYAISLIVVFLCLAALYESWSIPFSVMLVVPLGVIGALLAATFRGLTNDVYFQVGLLTTIGLSAKNAILIVEFAKDLMDKEGKGLIEATLDAVRMRLRPILMTSLAFILGVMPLVISTGAGSGAQNAVGTGVMGGMVTATVLAIFFVPVFFVVVRRRFSRKNEDIEHSHTVDHH
As for B1, the “survival and growth in 1-hexene, 1-octene and 1-nonene” value with E. coli K12 ΔacrAB [3] (pump expression vs control plasmid, saturated atmosphere, FIG. 2B) is listed as “strong advantage”. The “survival in the presence of styrene compared to control plasmid” value with E. coli K12 ΔacrAB [4] (pABc vs p0c, styrene, FIG. 2A) is “enhanced survival”. Further, the “tolerance to 1-hexene on over-expression in the wild type strain” value in the series with E. coli K12 wild type is listed as “greater than the wild type”.

B2: Q584R: E. coli AcrB (SEQ ID NO:1) variant with amino acid mutation Q584R (protein)
chain: B1 Multidrug efflux pump subunit … 2 with Q584R
modifications: E. coli
As for B2, the “efficiency among the beneficial mutations” value in the series on E. coli K12 ΔacrAB [3] (1-hexene saturated atmosphere) is recorded as “more efficient”. For the same molecule, the “tolerance to 1-hexene relative to wild type AcrB sequence” value with E. coli K12 ΔacrAB [3] (single mutation AcrB variants, 1-hexene saturated atmosphere, FIG. 4A) is recorded as “improvement in tolerance”. In addition, the “growth of the strain in presence of bile salts” value in the series on E. coli K12 ΔacrAB [4] (bile salts, FIG. 5C) is recorded as “improved the growth”.
